Molecular target: Treponema denticola superoxide reductase (Treponema denticola (strain ATCC 35405))
Test: SEC

stoichiometry N: 2
Substance: Treponema denticola superoxide reductase (enzyme)

— publication PMC3447989
